Assay results reported in patent publication US20200339680A1 (Alector, published 2020).

B1: TM-52 (antibody, V domains shown)
VH: QVQLQQPGAELVKPGASVKLSCKASGYTFTNYWMHWVKQRPGQGLDWIGNIDPSDSETHYNQKFKDKATLTVDKVSSTAYMQLSSLTSEDSAVYYCARRGYYGRSPFAYWGQGTLVTVSA
VL: ENVLTQSPAIMSASPGEKVTMTCSASSSVSYMHWYQQKSNTSPKLWIYDTSKLASGVPGRFSGSGSGNSYSLTISSAEAEDVATYYCFQGSGYPLTFGAGTKLELK
notes: mouse IgG (hybridoma)
B2: TM-50 (antibody, V domains shown)
VH: QVQLKESGPVLVAPSQSLSITCTVSGFSLTNYGVHWVRQPPGKGLEWLGVIWAGGNTNYNSALMSRLSISKDNSKSQVFLKMNSLQTDDTAMYYCAKEAKLLRSYAMDYWGQGTLVTVSA
VL: DVQMTQTTSSLSASLGDRVTISCRASQDINNYLYWYQQKPDGTVKLLIYYTSMLHSGVPSRFSGSGSGTDYSLTISNLEQEDIATYFCQQGSTLMYTFGGGTKLEIK
notes: mouse IgG (hybridoma)
B3: TM-16 (antibody, V domains shown)
VH: EVQLQQSGAELVRPGASVKLSCTTSGFNIKDYYMHWVKQRTEQGLEWIGRIDPEDGETKYAPEFQGKATITSDTSSNTAFLQLSSLTSEDTAVYYCASSQPFTYWGQGTLVTVSA
VL: QIVLTQSPAIMSASPGEKLTMTCSASSSLNYMYWYQQKPGSSPRLLIYDTSNLASGVPVRFSGSGSGTSYSLTISRMEAEDGATYYCQQWTSFPPTFGAGTKLELK

What was measured:
human TMEM106B [1] = target: T1, human TMEM106B (human, UniProt Q9NUM4 2-274); assay: FACS HeLa
T1 construct: full-length, transiently expressed on HEK293 cells, or natively expressed on HeLa, U251 and A549 cells (the cell is named under assay); also the source of the Pepscan peptides; also called huTMEM106B; huTMEM

human TMEM106B [2] = target: T1, human TMEM106B; assay: FACS U251
Method: (§1) All cells were cultured in either T75 or T150 flasks. […] The enzyme was quenched by addition of fresh media, and the cells were then distributed into 96-well plates for FACS analysis.
(§2) FACS analysis was performed as follows. Each cell type was aliquoted in 96-well round bottom plates (2×10^5 cells per well), washed once with FACS buffer (PBS+2% FBS+1 mM EDTA), and incubated with 50 μL of hybridoma supernatant or purified antibody (10 μg/ml in FACS buffer) on ice for 1 hour. […] Following this secondary incubation, the cells were again washed 2× with ice-cold FACS buffer and resuspended in a final volume of 50 μL of FACS buffer+0.25 μl/well propidium iodide (Fisher Scientific #4BDB556463). Analysis was performed on a FACSCanto system (BD Biosciences) or iQue (Intellicyt), with sort gates drawn to exclude dead (i.e., propidium iodide positive) cells.

human TMEM106B [3] = target: T1, human TMEM106B; assay: FACS A549;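 note: flow cytometry of cells incubated on ice for 1 h with hybridoma supernatant or purified antibody at 10 µg/mL, dead propidium iodide-positive cells gated out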
human TMEM106B [4] = target: T1, human TMEM106B; assay: FACS HEK+huTMEM 0.1 ug/ml (2nd column so headed);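 note: flow cytometry binding of purified anti-TMEM106B mouse IgG to HEK293 cells transiently transfected with TMEM106B, read as median fluorescence intensity on live (propidium iodide-negative) cells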
Method: (§3) Purified anti-TMEM106B antibodies were evaluated for their binding affinity to various TMEM106B-expressing cell lines including HEK293 transiently transfected with human/cyno/mouse TMEM106B, as well as HeLa cells and A549 cells. Antibodies tested for this experiment were mouse IgGs purified from hybridoma supernatant. Affinity binding to cells was determined as follows. Briefly, 1×10\hat{ }5 cells were aliquoted per well in 96-well round bottom plates and incubated with 50 μL of purified anti-TMEM106B antibody at various concentrations (10× dilutions starting at 10 μg/ml) in FACS buffer (PBS+2% FBS+1 mM EDTA). […] Sorting was performed on a iQue (Intellicyt), with sort gates drawn to exclude dead (propidium iodide+) cells. Binding data was analyzed using median fluorescent intensity (MFI) and graphed in Prism. Values presented are MFI.

human TMEM106B [5] = target: T1, human TMEM106B; assay: FACS A549 1 ug/ml
Method: as §3

human TMEM106B [6] = target: T1, human TMEM106B; assay: FACS HEK+huTMEM 10 ug/ml;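 note: flow cytometric binding of purified mouse IgG antibodies to HEK293 cells transiently expressing human TMEM106B, read as median fluorescence intensity on live cells with propidium iodide-positive cells excluded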
Method: as §3

mouse TMEM106B = target: T2, mouse TMEM106B (mouse, UniProt Q80X71 2-275); assay: FACS Neuro2a;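 note: flow cytometry of antibody binding to cells: hybridoma supernatant or purified antibody at 10 µg/ml, 1 h on ice, secondary detection, propidium iodide–positive dead cells gated out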
T2 construct: transiently expressed on HEK293 cells, or native on mouse Neuro2a cells; also called moTMEM106B; murine TMEM106B
Method: as §1, §2

human TMEM106B [7] = target: T1, human TMEM106B; assay: FACS HEK+huTMEM 1.0 ug/ml;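 note: binding of purified mouse IgG antibodies to HEK293 cells transiently expressing human TMEM106B, read by flow cytometry as median fluorescence intensity of live, propidium iodide-negative cells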
human TMEM106B [8] = target: T1, human TMEM106B; assay: FACS A549 10 ug/ml
Method: as §3

human TMEM106B [9] = target: T1, human TMEM106B; assay: FACS HEK+huTMEM 0.1 ug/ml;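 note: flow cytometry binding of purified mouse IgG antibodies to HEK293 cells transiently expressing TMEM106B, read as median fluorescence intensity on live cells (propidium iodide negative gating)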
Method: as §3

[10] = target: T3, GST Fusion human TMEM106B ECD (Truncated) (human); assay: SPR array; SPR kinetics, Table 5, first of two listed runs
T3 construct: also called GST-TMEM106B-truncated protein; GST-TMEM106B (truncated)
Method: (§4) Binding kinetic characterization of the purified antibodies was performed by Carterra using a proprietary array SPR instrument (MX-96) as follows. Briefly, antibodies were prepared by diluting to 5 μg/ml in 10 mM Acetate, pH 4.5 (Carterra), at 150 μL/well and then made an additional dilution at 1:10 from there by titrating 11 μL into 100 μL. […] The chip was activated with 18 mM EDC (Sigma Bioxtra) and 4.5 mM S—NHS (Thermo Fisher) diluted in 100 mM MES, pH 5.5, for 7 minutes, and then antibodies were coupled for 10 minutes at 45 μL/minute. After coupling, the chip was returned to the MX-96 and quenched for 7 minutes using 1 M Ethanolamine pH 8.5 (Carterra).
(§5) Printed antibodies were profiled for their ability to bind GST-TMEM106B (truncated) protein (described above). Briefly, GST-TMEM106B (truncated) antigen was diluted to 18 μg/ml (500 nM of 36 kDa fusion protein) by mixing 2.7 μL of 2.0 mg/ml antigen into 298 μL Running buffer (HBS-EP+, Teknova with 1 mg/ml BSA, Sigma), and titrated 50 μl into 200 μl for 5-fold serial dilutions. […] Duplicate measurements for each anti-TMEM106B antibody were taken to ensure reproducibility.

[11] = target: T3, GST Fusion human TMEM106B ECD …; assay: SPR array; SPR kinetics, Table 5, second of two listed runs
Method: as §4
Printed antibodies were profiled for their ability to bind GST-TMEM106B (truncated) protein (described above). Briefly, GST-TMEM106B (truncated) antigen was diluted to 18 μg/ml (500 nM of 36 kDa fusion protein) by mixing 2.7 μL of 2.0 mg/ml antigen into 298 μL Running buffer (HBS-EP+, Teknova with 1 mg/ml BSA, Sigma), and titrated 50 μl into 200 μl for 5-fold serial dilutions. In addition, binding to GST (Pierce) was assayed under the same conditions to determine the extent of any non-specific binding of the anti-TMEM106B antibodies to GST portion of the TMEM106B-GST fusion protein. Duplicate measurements for each anti-TMEM106B antibody were taken to ensure reproducibility.

[12] = target: T3, GST Fusion human TMEM106B ECD …; assay: SPR array; SPR kinetics, Table 5, first of two listed runs; weak binder
Method: as §4, §5

[13] = target: T3, GST Fusion human TMEM106B ECD …; assay: SPR array; SPR kinetics, Table 5, second of two listed runs (KD 2.90E-08 M)
Method: as §4, §5

[14] = target: T3, GST Fusion human TMEM106B ECD …; assay: SPR array
Method: as §4, §5

[15] = target: T3, GST Fusion human TMEM106B ECD …; assay: SPR array; SPR kinetics, Table 5, first of two listed runs (KD 4.70E-07 M)
Method: as §4, §5

Row | Binder | MFI (human TMEM106B [1]) | MFI (human TMEM106B [2]) | MFI (human TMEM106B [3]) | MFI (human TMEM106B [4]) | MFI (human TMEM106B [5]) | MFI (human TMEM106B [6]) | MFI (mouse TMEM106B) | MFI (human TMEM106B [7]) | MFI (human TMEM106B [8]) | MFI (human TMEM106B [9]) | koff [10] | koff [11] | Kd [12] | kon [13] | Kd [14] | kon [15]
1 | B1 | 227 MFI | 341 MFI | 987 MFI | 451 MFI | 401 MFI | 7020 MFI | 210 MFI | 8200 MFI | 443 MFI | 1940 MFI |  |  |  |  |  | 
2 | B2 | 159 MFI | 260 MFI | 580 MFI | 294 MFI | 381 MFI | 396 MFI | 257 MFI | 314 MFI | 445 MFI | 305 MFI |  |  |  |  |  | 
3 | B3 | 548 MFI | 292 MFI | 605 MFI | 351 MFI | 409 MFI | 5980 MFI | 392 MFI | 2140 MFI | 557 MFI | 680 MFI | 0.0031 s⁻¹ | 0.00095 s⁻¹ | 470 nM | 33000 M⁻¹ s⁻¹ | 29 nM | 6500 M⁻¹ s⁻¹
